Earlier results as cited in PMC5654615.
pKd: −log10 of the molar value. Like-named read-outs stand apart in the source and are kept apart here.

Key:
[1] = molecular target: MD2 (Homo sapiens) (UniProt Q9Y6Y9); test: SPR
[2] = molecular target: TLR4 (Homo sapiens) (UniProt O00206); test: SPR
[3] = molecular target: TLR4/MD2 complex (Homo sapiens) (UniProt O00206); test: SPR
[4] = molecular target: TLR4/MD2 complex (Homo sapiens) (UniProt O00206)

Sequence of UniProt Q9Y6Y9 (Q9Y6Y9 19-160): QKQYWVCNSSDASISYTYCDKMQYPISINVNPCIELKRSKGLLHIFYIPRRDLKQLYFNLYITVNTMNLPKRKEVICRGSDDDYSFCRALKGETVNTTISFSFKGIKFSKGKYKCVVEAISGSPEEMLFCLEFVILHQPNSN

pKd [1]	pKd [2]	pKd [3]	pKd [4]	Substance
6.52	6.21	6.62	–	CIRP (from UniProt Q14011)
–	–	–	5.82	HMGB1 (from UniProt P09429)
